Where two headings read alike, the source gives them in different places.
Legend:
[1] = biological target: purified HLA-DR DRB1*0101 (human); experiment: competition with 125I-labelled reference peptide, purified HLA
[2] = biological target: purified HLA-DR DRB1*0401 (human); experiment: as above
[3] = biological target: purified HLA-DR DRB1*0404 (human); experiment: as above
[4] = biological target: purified HLA-DR DRB1*0405 (human); experiment: as above
[5] = biological target: purified HLA-DR DRB1*0701 (human); experiment: as above
[6] = biological target: purified HLA-DR DRB1*0802 (human); experiment: as above
[7] = biological target: purified HLA-DR DRB1*1101 (human); experiment: as above
[8] = biological target: purified HLA-DR DRB1*1501 (human); experiment: as above
[9] = biological target: purified HLA-DR DRB4*0101 (human); experiment: as above
[10] = biological target: purified HLA-DR DRB5*0101 (human); experiment: as above
[11] = biological target: HLA-DR DRB1*0101 (human); experiment: competition with 125I-labelled peptide, purified HLA
[12] = biological target: HLA-DR DRB1*0301 (human); experiment: as above
[13] = biological target: HLA-DR DRB1*0401 (human); experiment: as above
[14] = biological target: HLA-DR DRB1*0404 (human); experiment: as above
[15] = biological target: HLA-DR DRB1*0405 (human); experiment: as above
[16] = biological target: HLA-DR DRB1*0701 (human); experiment: as above
[17] = biological target: HLA-DR DRB1*0802 (human); experiment: as above
[18] = biological target: HLA-DR DRB1*0901 (human); experiment: as above
[19] = biological target: HLA-DR DRB1*1101 (human); experiment: as above
[20] = biological target: HLA-DR DRB1*1302 (human); experiment: as above
[21] = biological target: HLA-DR DRB1*1501 (human); experiment: as above
[22] = biological target: HLA-DR DRB4*0101 (human); experiment: as above
[23] = biological target: HLA-DR DRB5*0101 (human); experiment: as above
[24] = biological target: HLA-DR DRB1*0101 (human)
[25] = biological target: HLA-DR DRB1*0401 (human)
[26] = biological target: HLA-DR DRB1*0404 (human)
[27] = biological target: HLA-DR DRB1*0405 (human)
[28] = biological target: HLA-DR DRB1*1302 (human)
[29] = biological target: HLA-DR DRB1*0301 (human); experiment: competition vs 125I-labeled peptide, purified HLA
[30] = biological target: HLA-DR DRB1*0101 (human); experiment: competition assay, purified HLA, inhibition of 125I-labelled reference peptide
[31] = biological target: HLA-DR DRB1*0401 (human); experiment: as above
[32] = biological target: HLA-DR DRB1*1302 (human); experiment: as above
[33] = biological target: HLA-DR DRB1*1501 (human); experiment: as above
[34] = biological target: HLA-DR DRB4*0101 (human); experiment: as above
[35] = biological target: purified HLA DRB1*0101 (human); experiment: competition with 125I-labelled peptide for purified HLA
[36] = biological target: purified HLA DRB1*0301 (human); experiment: as above
[37] = biological target: purified HLA DRB1*0401 (human); experiment: as above
[38] = biological target: purified HLA DRB1*0404 (human); experiment: as above
[39] = biological target: purified HLA DRB1*0405 (human); experiment: as above
[40] = biological target: purified HLA DRB1*0701 (human); experiment: as above
[41] = biological target: purified HLA DRB1*1101 (human); experiment: as above
[42] = biological target: purified HLA DRB1*1302 (human); experiment: as above
[43] = biological target: purified HLA DRB1*1501 (human); experiment: as above
[44] = biological target: HLA-DR DRB1*0101 (human); experiment: competition with 125I-labelled reference peptide on purified HLA-DR
[45] = biological target: HLA-DR DRB1*0301 (human); experiment: as above
[46] = biological target: HLA-DR DRB1*0401 (human); experiment: as above
[47] = biological target: HLA-DR DRB1*0404 (human); experiment: as above
[48] = biological target: HLA-DR DRB1*0405 (human); experiment: as above
[49] = biological target: HLA-DR DRB1*0701 (human); experiment: as above
[50] = biological target: HLA-DR DRB1*1101 (human); experiment: as above
[51] = biological target: HLA-DR DRB1*1302 (human); experiment: as above
[52] = biological target: HLA-DR DRB1*1501 (human); experiment: as above
[53] = biological target: purified HLA DRB1*0101 (human); experiment: competitive inhibition of 125I-labeled peptide binding to purified HLA
[54] = biological target: purified HLA DRB1*0301 (human); experiment: as above
[55] = biological target: purified HLA DRB1*0401 (human); experiment: as above
[56] = biological target: purified HLA DRB1*0404 (human); experiment: as above
[57] = biological target: purified HLA DRB1*0405 (human); experiment: as above
[58] = biological target: purified HLA DRB1*0701 (human); experiment: as above
[59] = biological target: purified HLA DRB1*0802 (human); experiment: as above
[60] = biological target: purified HLA DRB1*1101 (human); experiment: as above
[61] = biological target: purified HLA DRB1*1302 (human); experiment: as above
[62] = biological target: purified HLA DRB1*1501 (human); experiment: as above
[63] = biological target: purified HLA DRB4*0101 (human); experiment: as above
[64] = biological target: purified HLA DRB5*0101 (human); experiment: as above

## ESAVLRGFLILGKED (modifications not checked) [Flu.PB2.690]
[1]
  IC50: 8.4 nM
[2]
  IC50: 13200 nM
[3]
  IC50: 110 nM
[4]
  IC50: 7100 nM
[5]
  IC50: 2470 nM
[6]
  IC50: 803 nM
[7]
  IC50: 1030 nM
[8]
  IC50: 39 nM
[9]
  IC50: 1280 nM
[10]
  IC50: 303 nM

## SLMLQIGNMISIWVSHS (modifications not checked) [Flu.NA.21]
[11]
  IC50: 8 nM
[12]
  IC50: 441 nM
[13]
  IC50: 5 nM
[14]
  IC50: 3 nM
[15]
  IC50: 66 nM
[16]
  IC50: 13 nM
[17]
  IC50: 89 nM
[18]
  IC50: 86 nM
[19]
  IC50: 83 nM
[20]
  IC50: 10 nM
[21]
  IC50: 8 nM
[22]
  IC50: 8 nM
[23]
  IC50: 24 nM

## CEQIADSQHRSHRQM (modifications not checked) [Flu.M1.154]
[24]
  IC50: > 10000 nM
[25]
  IC50: > 10000 nM
[26]
  IC50: > 10000 nM
[27]
  IC50: > 10000 nM
[28]
  IC50: > 10000 nM
[29]
  IC50: 804 nM

## DILMRMSKMQLGSSS (modifications not checked) [Flu.NS2.87]
[30]
  IC50: 2140 nM
[31]
  IC50: 717 nM
[32]
  IC50: 423 nM
[33]
  IC50: 748 nM
[34]
  IC50: 11 nM

## VMRMGDLHSLQNRNG (modifications not checked) [Flu.NS2.125]
[30]
  IC50: 249 nM
[31]
  IC50: 448 nM
[32]
  IC50: 1370 nM
[33]
  IC50: 372 nM
[34]
  IC50: 8820 nM

## YIQMCTELKLSDYEG (modifications not checked) [Flu.NP.43 peptide …]
[35]
  IC50: 320 nM
[36]
  IC50: 368 nM
[37]
  IC50: 392 nM
[38]
  IC50: 1640 nM
[39]
  IC50: 2690 nM
[40]
  IC50: 5370 nM
[41]
  IC50: 5840 nM
[42]
  IC50: 15400 nM
[43]
  IC50: 594 nM
[44]
  IC50: 320 nM
[45]
  IC50: 368 nM
[46]
  IC50: 392 nM
[47]
  IC50: 1640 nM
[48]
  IC50: 2690 nM
[49]
  IC50: 5370 nM
[50]
  IC50: 5840 nM
[51]
  IC50: 15400 nM
[52]
  IC50: 594 nM

## RREVHIYYLEKANKI (modifications not checked) [Flu.PA.127 peptide …]
[53]
  IC50: 34 nM
[54]
  IC50: > 10000 nM
[55]
  IC50: 63 nM
[56]
  IC50: 181 nM
[57]
  IC50: 1490 nM
[58]
  IC50: 23 nM
[59]
  IC50: 95 nM
[60]
  IC50: 96 nM
[61]
  IC50: 150 nM
[62]
  IC50: 4.5 nM
[63]
  IC50: 5 nM
[64]
  IC50: 25 nM
